Source: patent US20220194999A1 (published 2022)
Each block holds one binder with its values, some of them ahead of it.

Key:
Experiment in all cases: multimer staining
[1] = molecular target: T1, TP53 C141Y peptide on HLA-A*02:01 (human)
T1 peptide: KTYPVQLWV

[2] = molecular target: T2, TP53 C141Y, mimic peptide TP53_C141Y8 peptide on HLA-A*02:01 (human)
T2 peptide: KMYPVQLWL

[3] = molecular target: T3, PIK3CA G118D, mimic peptide PIK3CA_G118D5 peptide on HLA-A*02:01 (human)
T3 peptide: ILNREIDFV

[4] = molecular target: T4, PIK3CA G118D peptide on HLA-A*02:01 (human)
T4 peptide: ILNREIDFA

binding result [1]: recognises
binding result [2]: recognises
B1: TCR of SEQ ID NOs 210 and 114 (TCR)
alpha TRAV8-4*01 TRAJ8*01 CDR3: CAVSDEDTGFQKLVF
beta TRBV12-3*01 TRBJ1-2*01 CDR3: CASSFSTCSANYGYTF

binding result [3]: recognises
binding result [4]: recognises
B2: TCR of SEQ ID NOs 120 and 114 (TCR)
alpha TRAV12-2*01 TRAJ15*01 CDR3: CAGLIGTALIF
beta TRBV12-3*01 TRBJ1-2*01 CDR3: CASSFSTCSANYGYTF
